# According to the DeepSol protein solubility set:
# Assay: soluble on expression in E. coli; label from the status in PepcDB or PDB records
row,Sequence,soluble on expression in E. coli
1,MGSDKIHHHHHHMDSGMNEKTTAELEHLRGLIDGVDQQLLHLLRKRLDLVAQVGTVKHGAGLPIYAPQREAAMLAKRREEAKNMGIAPQLIEDILRRLMRESYLNEKDVGFKQVKKDLGSVVIVGGKGQLGGLFSQMLTLSGYQVNLLDKDDWQQADSLFADAGMVLVTVPIAITCELIREKLTQLPADCILADLTSIKTEPVKAMLEAHSGPVVGFHPMFGPDVGSLAKQVVVVCHGRSPEKYQWLLEQIAIWGARIVEAEPERHDSAMQLVQAMRHFSTFVYGLNLCKEEADIDTLLQFSSPIYRLELAMVGRLFAQSPELYADIIFAQQDSQHAIGDYLDNYREALELLKRGDRNEFIKQFQSVAKWFGDFAPQFQRESRIMLQSVNDMKTN,not soluble
2,MMLITTSHRPTRRTRSFGHDLERVIPNSLYLTRGKKTIQELLMEAYDRGYERLLIINVWKGNPLKMTFIKVHPEDWGYLGYLYLHGVKLQREMGFKGLNPIREDMPLVITTAKRVGLDHLAFAQVFSELTTGKFVPRGDKSLLSIADRYNTDVLAVIERHPRGIVINFYRLDITKDRPVGPLINVKIWIMEDGRRWDYKEAFGIKVPPRRREFEGKRGEGKNSDLEHHHHHH,not soluble
3,MGSDKIHHHHHHMPSSTTLQHAIENITIWRKGEQRAPHKPLLLLYVLSQYQRGHARMFDYASEIRDELHSLLERFGPQRRQYRPDMPFWRLKGDGFWELHNSDQCSTQGSRQPPGKELELCHVAGGFDEPHFALLNRNKRLINTLAHQILEAHFPESIQEELAEEMGFDLQQIRKERDPHFRQQVLRAYNYECAICGFNMRHDNTSVALEAAHIKWKQHGGPCEIPNGLALCAIHHKAFDKGSIGLDEDMRIQVSPAVNGGGIVGRLFWDFDGKPITLPQGKECYPQEGFVAWHRREVFRG,not soluble
4,MGSDKIHHHHHHMLSAKIEVYDSRFYQLVGTEARLEELFDKAIWAEGPVWLEKQQAVIFSDVKGNTMYRWTAEQGTQIFRQPSQFANGNAVDAAGNLITCEHGRRAISLTDHAGNIRVLVNKLEGKRLNSPNDVVVKSDGTIWFTDPPYGILSDAEGKKSPSEIIGCYVYCYDPITDDIHIATFNVMRPNGLAFCENETKLVVADMSVVEFKRTGLHHLVVFDVIDNQLYNRTSIAAISPGIPDGFCIDHNNVIYCSCETGLLVLLLDGTFLGRILLDKTASNCTFGLDQKTLFITATNSLYCLTFK,not soluble
5,MGSDKIHHHHHHMDKLIAFLKDKKITEVECVISDMTGIARGKIAPVDKFVSEKGMRLPESVLLQTVTGDFIDDEVYYQLLDDADIDFVCVPDENAVFMLPWTVEATAQVIHDCYDRMGNPIELSPRNVLKKVLKLYEDKGWEPVIAPEMEFYLTKRSDDHDLPLKPPIGRSGRPEAGRQSFSIDAANEYDPLFEDMYDWCEIQGLDIDTLIHEDGPAQMEINFSHGNALSLADQVFIFKRTLKEAALKHDVCATFMAKPVTDEPGSAMHIHQSVLDIKTGKNIFTKDDGTQSKLFLSYIAGLQQYIPELLPLMAPSANSFRRFLPGTSAPVNLEWGVENRTCGLRIPESSPQNRRIENRIPGADANCYLAIAASLLCGYIGMVDDLKPSTPVTGKSNESRTNNENCLPLTLEEALVAMQSSDACIEYLGQSFTTGFVAVKQAELENFRRVVSSWEREFLLLTV,not soluble
6,MIYMSEIIEVIYEDGVLKPLKPLKIKGKKRLKIKIVNDDVEEFLKSMIIKKCKDIDYKKLKEAYYESFLEHHHHHH,not soluble
7,MGSDKIHHHHHHMRNQILKKATVSIMLLLCINVSVADTSTSVSCAESGSASAYSRSGNSVSYSSVNCSSNNEQNAMTPAGIAVSKSYSPEPYTSLVLSGAFNTEIKTSSENRVIISGDSNYVESVEVNSSDGELIIRRPGPGNDNLNVIVESISLQKLKISGAGSTNIYGDFPDGLSVRKSGAGSINIEGQASTLKLNLSGAGNTTARDFTVDNVEIDATGAGNIAVCAKKSVAGSLAGAVHFKVYCNPSQRSVNTRGVSRVSYR,not soluble
8,MKGGAGVPDLPSLDASGVRLAIVASSWHGKICDALLDGARKVAAGCGLDDPTVVRVLGAIEIPVVAQELARNHDAVVALGVVIRGQTPHFDYVCDAVTQGLTRVSLDSSTPIANGVLTTNTEEQALDRAGLPTSAEDKGAQATVAALATALTLRELRAHS,soluble
9,MKIKTRFAPSPTGYLHVGGARTALYSWLFARNHGGEFVLRIEDTDLERSTPEAIEAIMDGMNWLSLEWDEGPYYQTKRFDRYNAVIDQMLEEGTAYKCYCSKERLEALREEQMAKGEKPRYDGRCRHSHEHHADDEPCVVRFANPQEGSVVFDDQIRGPIEFSNQELDDLIIRRTDGSPTYNFCVVVDDWDMEITHVIRGEDHINNTPRQINILKALKAPVPVYAHVSMINGDDGKKLSKRHGAVSVMQYRDDGYLPEALLNYLVRLGWSHGDQEIFTREEMIKYFTLNAVSKSASAFNTDKLLWLNHHYINALPPEYVATHLQWHIEQENIDTRNGPQLADLVKLLGERCKTLKEMAQSCRYFYEDFAEFDADAAKKHLRPVARQPLEVVRDKLAAITDWTAENVHHAIQATADELEVGMGKVGMPLRVAVTGAGQSPALDVTVHAIGKTRSIERINKALDFIAERENQQ,soluble
10,MGSDKIHHHHHHMKGRMPIIEALCAHVERNATSWHVPGHKNGTLFEGLPSFFEWDKTELRGLDDFHYPEEAIYEAKLLLRQVYEARDSHFLINGSTVGNWAMLAAVSQRGDRIYVQRNSHKSVFNALEWLGLSPILLGPEIDPSTGISGNVSRETLEEALTTFPGGVAVFLTSPTYYGETARIEELLPFTTASGIPLLIDEAHGAHFGEAFGVRSAFELGATAVVQSAHKTLPALTMGAWIHERFTDDERRRLTRALQAFQTSSPSYLLMASLDFAREYREKWTVSNMKSVRTSHEHLHQQINQLTDITAFTFDDWSRMILSCEEYSGSQLIEALADQGLDAEFALGPHVVCILPLRSIEPFEQDTWINQIQLAIETLKAEGIPDKRYMEQPFMGKIKVSSLACPLDQLEDAEAVEQTFEQSVGLVSLETIIPYPPGIPLILRGERITAEHITMIEHYINTSIHLQGGEFLHQGKLRVIQEGIRE,not soluble
11,MSVEKLIVDHMETWTSALQTRSTAGRGSSGKIDLYGIKKLRELILELAVRGKLVPQDPNDEPASDLLKRIAAEKAELVKQGKIKKQKPLPEISEEEKPFELPEGWEWVHLPDIYCSISESSRKIKSSEILPEGKYPVIEQSQEFISGYCNNECLLIKLNNPVIVFGDHTRNIKFIDFDFVVGADGVKILSPILICERFFFWQLRSFKLDVRGYARHFKVLNSCLFALPPIAEQERIVEKVSSLMSLCDQLEQQSLTSLDAHQQLVETLLGTLTDSQNTAELAENWARISEHFDTLFTTEASVDALKQTILQLAVMGKLVPQDPNDEPASELLKRIAQEKAQLVKEGKIQKPLPPISDEEKPFELPEGWEWCRIGNIVNIKSELVSPKDYLNLYQVAPDIIEKGTGRVISKRTVKESGVKGPNSRFYKGQIVYSKIRPSLSKVFLAEYNGLCSADMYPLDCYINPNYLLKYILSIPFLMQVKKAENRIKMPKLNSDSFYNIIVAIPPYNEQQAIFDKINSIEAVCNGLISYIGIYHKTQLHLADALTDAAIN,not soluble
12,MSLAEQIEFDQAHLTLQEITEALDNGRFVHVRRQLQDMEPEDIAHLLEASPRKAREVLWQLTDPEDYGEILDELNEDVKDALVSKMAPEKLAEATEGMDIDDVAYVLRSLPDDVSREVLSQMDAADRMRVETALSYPEDTAGGLMNTDVITIRADVDVDVVLRYLRMKGELPEATDALYVIDDESKLIGHLSLVTLLTTQPDVPVSEVMDDADEAIKVDMKDSDIANLFERRNWVSAPVVDENQHLVGRITIDDVVDIIREDAEHSMMSMAGMDDDEDTFAPEGHHHHHH,soluble
13,MSMPATLTKTTKLATSLIDEYALLGWRAMLTEVNLSPKPGLVDRINCGAHKDMALEDFHRSALAIQGWLPRFIEFGACSAEMAPEAVLHGLRPIGMACEGDMFRATAGVNTHKGSIFSLGLLCAAIGRLLQLNQLLTPTTVCSTAASFCRGLTDRELRTNNSQLTAGQRLYQQLGLTGARGEAEAGYPLVINHALPHYLTLLDQGLDPELALLDTLLLLMAINGDTNVASRGGEGGLRWLQREAQTLLQKGGIRTPADLDYLRQFDRECIERNLSPGGSADLLILTWFLAQI,soluble
14,MGSDKIHHHHHHMSLANRYEFVYLFDVSNGNPNGDPDAGNLPRLDPETNQGLVTDVCLKRKLRNYVALEKENEPGFAIYMQEKSVLNHQHKRAYEALSLEPEPKKLPKDQAKARELTAWMCKNFFDVRAFGAVMTTEVNAGQVRGPIQLTFATSIDPVVPLEVSITRMAVTNDKDLEKERTMGRKHIVPYGLYRAHGFVSAKLAERAGFGEEDLQLLWRGLINMFEHDRSAARGEMTARKLIAFKHECALGNAPAHRLFDSVRVSRADGAGDSPARGFTDYRVELDRAVLPAGVEVLELL,not soluble
15,MGSDKIHHHHHHATSFTDSLDLTQYRNDVKTLASDAFGGRAPLSEGEQLTLDYLEKAFKEMGLKPAFGDSYLQAVPLAKISADQNMQLDIGGLKLANGSEFTARTQRIAEKVSLKNSDVVFVGYGINAPEYGWNDYQGLDVKGKTVIVLVNDPGFATQDPNVFKGNAMTYYGRWTYKYEEAARQGAEAVFIVHETAPAAYGWGVVQNSNTGTKFALVDTNNNQGQVGVMGWVQYEVAQNIFAKAGMNFDNLKQQAAKPNFKALPLKLRATLTLNNTIERAESHNVAALLPGKTRPDEVVMMHAHWDHLGTIIENGKPEILNGAVDNASGVAGVLALARYFKQQAEIAPLERSIIFSAFTAEETGLIGAQHFAQHPSVPTKDIVAFLNIDGMNVGQSVDYILRYGDGVSELEQYLDKAAKAQGRLVKADPRPQNGLMFRSDHFALAQQGVPGLLFMSLGDTDPDYIAHKYHQGADDYDPNWSLAGVSQDLELMAQMLTMLANSRDWPRWIESSDFKAKREQDGRN,not soluble
16,AHHHHHHGSKIATIVGARPQFIKMAPVSRELRKYFEEVVIHTGQHYDYEMDRIFFEQLNIPEPDYNLGVGSGSHGYQIGEMLKKIEEVLIKEKPDLVMVFGDTNSTLAGALAAAKLKIKVAHVEAGLRSFDKSMPEEINRILTDHVSDYLFAPTETAVKNLYNEGIRNGVYLTGDVMLDALLYNVKIAERCSEILNKLGLKPKEFCLATVHRAENTDNLERLKNIIDAFVECKETIVFPVHPRTEKVLKAYGLYDSLKKAENVILIKPVGYLDMLMLEKNAKKILTDSGGVQKEAYFLKVPCITLRERTEWVETVEDGWNVLVGADKEKILRAVREFEPSGETYTYKFGDGRASEKIAEVIKNVDR,not soluble
17,MGHHHHHHSHMFFKQFYDKHLSQASYLIGCQKTGEAMIIDPIRDLSSYIRVADEEGLTITHAAETHIHADFASGIRDVAIKLNASIYVSGESDDTLGYKNMPNQTHFVQHNDDIYVGNIKLKVLHTPGHTPESISFLLTDEGAGAQVPMGLFSGDFIFVGDIGRPDLLEKAVKVEGSSEIGAKQMFKSIESIKDLPNYIQIWPGHGAGSPCGKSLGAIPTSTLGYEKQTNWAFSENNEATFIDKLISDQPAPPHHFAQMKKINQFGMNLYQPYTVYPATNTNRLTFDLRSKEAYHGGHIEGTINIPYDKNFINQIGWYLNYDQEINLIGEYHLVSKATHTLQLIGYDDVAGYQLPQSKIQTRSIHSEDITGNESHILDVRNDNEWNNGHLSQAVHVPHGKLLETDLPFNRNDVIYVHCQSGIRSSIAIGILEHKGYHNIINVNEGYKDIHLS,not soluble
18,MGSDKIHHHHHHDGDDMSSCSSHSSFGSEYSEENKVNCTIDNFPVQAIALERCDGTLDSLFTKENLAMKRPQLRSAMFQIVMSLRVLQKAFRFTHNDLHTNNVVWCATDRKYLFYKHNSKYYRVPTFGRIFKIIDFGRAIYRFRGETMCSDSYHPSGDAGSQYNCEPYFNPNKPLLEPHFGFDLARLGCSLYELVDAEDVDDNGIINEEKLGDVERMIVSWCRDDKGRNILFKRDGDERYPGFKLYKMIARTSHDHTPEKMLAGYVFDTYLMAAKKCKKQERLMDVDAIPDYTEVVVGGDGKEVNATS,not soluble
